Test [1] addresses T1, recombinant mouse Trop-2-his protein (Cat.: 50922-M08H, Beijing Yiqiao Shenzhou Science and Technology Co., … (mouse, UniProt Q8BGV3 25-270)).
T1 construct: Bought protein; not shown: his tag
T1 sequence (looked up): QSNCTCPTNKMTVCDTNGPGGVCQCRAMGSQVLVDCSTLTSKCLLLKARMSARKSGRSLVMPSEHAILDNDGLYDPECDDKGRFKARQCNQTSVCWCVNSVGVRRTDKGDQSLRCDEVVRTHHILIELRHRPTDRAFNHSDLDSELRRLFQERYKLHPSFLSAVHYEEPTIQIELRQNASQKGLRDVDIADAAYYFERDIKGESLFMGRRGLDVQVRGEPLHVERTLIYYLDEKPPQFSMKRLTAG
Briefly: ELISA, coated mouse Trop-2-his 1 µg/ml. As for the experimental part: (§1) Washed with PBS 3 times, the plates were blocked with the added 5% BSA PBS at 37° C. for 60 min, and then washed 3 times with PBST. Different concentrations of h23-12 (serial dilutions of 14 concentrations obtained through 3-fold serially diluting a solution with an initial concentration of 10 μg/ml), h4-3 (serial dilutions of 12 concentrations obtained through 3-fold serially diluting a solution with an initial concentration of 3 μg/ml), and Sacituzumab (serial dilutions of 12 concentrations obtained through 3-fold serially diluting a solution with an initial concentration of 3 μg/ml) were added into the plates, with each concentration provided in a parallel well. The plates were incubated at 37° C. for 60 min, and then were washed 4 times with PBST. 1:5000 dilution of H1RP-anti-human Fc (Cat.: 109-035-098, Jackson ImmunoResearch) was added into the plates for incubation at 37° C. for 30 min. Afterwards, the plates were washed with PBST 4 times, and TMB substrate was added for color development at 37° C. for 10 min. Then 2M HCl was added to stop reaction; and absorbances at 450 nm and at 630 nm (as reference wavelength) were read, and A450 nm-630 nm values of the wells in the plates were recorded.

The target in test [2] is T2, human Trop-2 on the surface of cells (CHO/Trop-2 cells; BxPC-3 cells; NCI-N87 cells) (human, UniProt P09758 27-323).
T2 sequence (looked up): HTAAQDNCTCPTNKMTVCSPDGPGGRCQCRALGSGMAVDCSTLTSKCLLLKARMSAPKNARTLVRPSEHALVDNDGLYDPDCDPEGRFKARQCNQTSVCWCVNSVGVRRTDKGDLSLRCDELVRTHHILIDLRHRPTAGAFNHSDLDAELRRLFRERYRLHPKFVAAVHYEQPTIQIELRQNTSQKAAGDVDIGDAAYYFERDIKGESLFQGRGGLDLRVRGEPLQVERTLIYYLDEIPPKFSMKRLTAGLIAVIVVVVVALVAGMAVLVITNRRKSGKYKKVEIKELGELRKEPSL
The test can be described thus: cell-based or functional assay.

For test [3], the target named is T3, recombinant cynomolgus Trop-2-his protein (ACCESSION NO.: UniProtKB-A0A2K5UE71, AA 1-272) (cynomolgus, UniProt A0A2K5UE71 1-272).
T3 construct: The printed range begins at residue 1; not shown: his tag
T3 sequence: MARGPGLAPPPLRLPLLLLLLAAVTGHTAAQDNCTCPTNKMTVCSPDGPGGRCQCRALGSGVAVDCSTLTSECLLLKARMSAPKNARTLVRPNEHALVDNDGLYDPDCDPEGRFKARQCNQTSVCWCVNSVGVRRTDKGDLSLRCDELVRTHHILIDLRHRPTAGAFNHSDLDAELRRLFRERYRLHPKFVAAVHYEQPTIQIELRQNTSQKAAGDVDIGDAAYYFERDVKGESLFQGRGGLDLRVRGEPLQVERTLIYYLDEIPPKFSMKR
The test can be described thus: ELISA, coated cynomolgus Trop-2-his 1 µg/ml. As for the experimental part:
as §1

In test [4] the target is T4, recombinant human Trop-2-his protein (ACCESSION NO.: NP_002344.2, AA 1-274) (human, UniProt P09758 27-274).
T4 construct: range 27-274; also called recombinant human Trop-2 protein; recombinant human Trop-2 extracellular domain; not shown: his tag
T4 sequence (looked up): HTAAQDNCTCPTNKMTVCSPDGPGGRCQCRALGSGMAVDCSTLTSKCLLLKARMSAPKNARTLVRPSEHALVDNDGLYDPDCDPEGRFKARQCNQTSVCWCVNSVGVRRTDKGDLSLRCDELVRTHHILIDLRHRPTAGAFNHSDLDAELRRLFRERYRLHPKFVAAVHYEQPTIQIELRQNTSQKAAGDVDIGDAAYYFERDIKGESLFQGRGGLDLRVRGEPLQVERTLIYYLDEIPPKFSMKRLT
The test can be described thus: BLI, naked antibody on AHC sensor, Trop-2-his 60 nM, 300 s binding. As for the experimental part: (§2) Affinities of the antibodies were determined by an assay including capturing Fc fragments of the antibodies with anti-human IgG Fc capture (AHC) biosensors using Octet QKe system instrument from Fortebio.
For the assay, SN38-labeled antibodies prepared as described above: h23-12-SN38, ch4-3-SN38, ch11-4-SN38, and positive control antibody Sacituzumab-SN38, as well as naked antibodies h23-12, ch4-3, ch11-4, and positive control antibody Sacituzumab were diluted to 4 μg/ml with PBS and allowed to flow through the surface of an AHC biosensor (Cat.: 18-0015, PALL) for 120 s. Recombinant human Trop-2-his protein (ACCESSION NO.: NP_002344.2, AA 1-274) was used as a mobile phase, and its concentration was 60 nM. The binding time was 300 s and the dissociation time was 300 s. When the assay was finished, data from which the response value of blank control had been deducted were fitted to a 1:1 Langmuir binding model using software, and then kinetic constants for antigen-antibody binding were calculated.
A general note: Biolayer interferometry detects binding as a change in optical thickness at a sensor tip.

The target in test [5] is T4, recombinant human Trop-2-his protein …. The test can be described thus: BLI, antibody on AHC sensor, Trop-2-his 23, 30, 45, 75 nM. The method, then:
as §2
For the assay, each of the antibodies (h23-12, h4-3, and control antibody Sacituzumab) was diluted to 4 μg/ml in PBS, and was allowed to flow through the surface of an AHC biosensor (Cat.: 18-0015, PALL) for 120 s. Recombinant human Trop-2-his protein (ACCESSION NO.: NP_002344.2, AA 1-274) was used as a mobile phase. The Trop-2-his protein was used in following concentrations which corresponded to different antibodies: in case of h23-12, the Trop-2 was used in concentrations of 23, 30, 45, and 75 nM; in case of h4-3, it was used in concentrations of 23, 30, 45, and 60 nM; and in case of Sacituzumab, it was used in concentrations of 23, 30, 45, and 75 nM. The binding time was 100 s and the dissociation time was 300 s. When the assay was finished, data from which the response values of blank control had been deducted were fitted to a 1:1 Langmuir binding model using software, and then kinetic constants for antigen-antibody binding were calculated.

Consider two molecules from patent US20240092930A1 (MABWELL SHANGHAI BIOSCIENCE, published 2024).

By EC50 is commonly meant the concentration that produces a half-maximal response. As usually defined, the Kd is the constant that tells how readily two partners part at equilibrium. A word on the koff: it is a measure of how fast the partners let go of each other. As usually defined, the kon is a measure of how fast the partners come together.

B1: Sacituzumab (antibody, human IgG1, kappa, V domains shown)
VH: QVQLQQSGSELKKPGASVKVSCKASGYTFTNYGMNWVKQAPGQGLKWMGWINTYTGEPTYTDDFKGRFAFSLDTSVSTAYLQISSLKADDTAVYFCARGGFGSSYWYFDVWGQGSLVTVSS
VL: DIQLTQSPSSLSASVGDRVSITCKASQDVSIAVAWYQQKPGKAPKLLIYSASYRYTGVPDRFSGSGSGTDFTLTISSLQPEDFAVYYCQQHYITPLTFGAGTKVEIKR
notes: expressed in HEK293; also called control antibody Sacituzumab; Saituzumab
For B1, the binding result in test [1] is given as “no binding (tested: up to 3 µg/ml)”. For the same molecule, the “Internalization percentage, 1 h, NCI-N87 cells, FACS” value in test [2] is 49.3%. Besides, in test [3], the EC50 came out at 0.0726 nM. In addition, in test [4], the Kd was found to be 0.583 nM. For the same molecule, in test [5], the equilibrium dissociation constant (Kd) is 0.941 nM, the koff came out at 0.000194 s⁻¹ and the kon was 208000 M⁻¹ s⁻¹.

B2: h23-12-25 (antibody, human IgG1, kappa, V domains shown)
VH: QVQLVQSGAEVKKPGASVKVSCKASGYTFTSYWMHWVRQAPGQGLEWMGEITPSDNYGSYNQKFKGRVTITRDTSTSTAYMELSSLRSEDTAVYYCARGHGNYVSFDYWGQGTLVTVSS
VL: DIQMTQSPSSLSASVGDRVTITCRASQDISNYLNWYQQKPGKAPKLLIYYTSRLESGVPSRFSGSGSGTDFTLTISSLQPEDFATYFCQQGYTLPPYTFGQGTKLEIKR
notes: also called h32-12
Consider B2, for which the binding result in test [1] is on record as “no binding (tested: up to 10 µg/ml)”. For the same molecule, in test [2], the “Internalization percentage, 1 h, NCI-N87 cells, FACS” value is 54%. Moreover, the EC50 in test [3] turned out to be 0.124 nM. Moreover, in test [4], the Kd was determined as 0.507 nM. In test [5], the Kd was determined as 0.64 nM, the koff is 0.000114 s⁻¹ and the kon amounted to 178000 M⁻¹ s⁻¹.
